Test results: US20250340602A1

Target: Gal80p (Saccharomyces cerevisiae) (UniProt P04387)
Experiment: cell-based or functional assay

UniProt P04387, sequence (P04387 whole entry): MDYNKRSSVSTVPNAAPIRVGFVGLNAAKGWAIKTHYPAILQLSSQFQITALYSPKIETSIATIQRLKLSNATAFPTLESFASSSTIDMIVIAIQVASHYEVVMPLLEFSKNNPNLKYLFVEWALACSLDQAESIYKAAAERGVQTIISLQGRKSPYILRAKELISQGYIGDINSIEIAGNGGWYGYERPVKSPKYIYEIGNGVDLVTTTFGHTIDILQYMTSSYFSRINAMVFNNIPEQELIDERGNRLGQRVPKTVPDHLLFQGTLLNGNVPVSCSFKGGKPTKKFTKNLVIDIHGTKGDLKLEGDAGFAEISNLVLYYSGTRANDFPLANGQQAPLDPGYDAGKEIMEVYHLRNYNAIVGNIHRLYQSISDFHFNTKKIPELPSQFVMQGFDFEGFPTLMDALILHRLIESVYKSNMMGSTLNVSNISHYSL

## Gal3p^MC (metabolic coordinator) (from UniProt P13045 1-520)
  GAL1p-EGFP fluorescence during growth on galactose in strain SFS6: > 5 fold
